Source: US20060045881A1, “Anti-cancer vaccines” (Board of Regents, The University of Texas System, priority 2004, published 2006)

Biological target: HLA-A2.1 (HLA-A*0201) on the surface of T2 cells (human)

B1: Influenza B nucleoprotein peptide (aa 85-94), P04665 85-94 (peptide)
peptide: KLGEFYNQMM
modifications: not checked
Binder B1 has a Median Channel of Fluorescence of HLA-A2 Expression on T2 (median channel of fluorescence) of 194.
